# Reference: patent US20140294884A1 (Novartis, published 2014)
# Tests used:
# [1] = target: receptor for App on Chang conjunctiva epithelial cells (proteinaceous, not identified) (human); experiment: FACS binding assay on Chang cells (FIG. 35)
# [2] = target: receptor for App on Chang conjunctiva epithelial cells (proteinaceous, not identified) (human); experiment: cell-based or functional assay
# [3] = target: human receptor for NadA on Chang conjunctiva epithelial cells (pronase-sensitive protein, not identified) (human); experiment: FACS on Chang cells, MFI against protein concentration
# [4] = target: the molecule itself; experiment: Western blot of whole cell lysates with anti-NadA serum (self-association)
molecule,measurement,setting,value
App-His,concentration at which binding reaches a plateau,[1],50 µg/mL
App S267A expressed on the surface of E. coli (pET-AppS267A transformants),"fluorescence shift (cells positive to adhesion), FACS adhesion of E. coli to Chang cells",[2],91%
Appβ expressed on the surface of E. coli (pET-Appβ transformants),"fluorescence shift, FACS adhesion of E. coli to Chang cells",[2],74.2%
NadA (purified recombinant protein used in FACS binding to Chang cells),concentration at which binding reaches a plateau,[3],200 µg/mL
App expressed from the full-length gene on the surface of E. coli (pET-App transformants),"fluorescence shift (cells positive to adhesion), FACS adhesion of E. coli to Chang cells",[2],90.3%
"NadA allele 2 (strain 90/18311) (other, also called allele 2 of 961) ATNDDDVKKAATVAIAAAYNNGQEINGFKAGETIYDIDEDGTITKKDATAADVEADDFKGLGLKKVVTNLTKTVNENKQNVDAKVKAAESEIEKLTTKLADTDAALDATTNALNKLGENITTFAEETKTNIVKIDEKLEAVADTVDKHAEAFNDIADSLDETNTKADEAVKTANEAKQTAEETKQNVDAKVKAAETAAGKAEAAAGTANTAADKAEAVAAKVTDIKADIATNKDNIAKKANSADVYTREESDSKFVRIDGLNATTEKLDTRLASAEKSITEHGTRLNGLDRTVSDLRKETRQGLAEQAALSGLFQPYNVGRFNVTAAVGGYKSESAVAIGTGFRFTENFAAKAGVAVGTSSGSSAAYHVGVNYEW",binding result,[4],binds
"NadA allele 1 (strain MC58) (other, Oligomer of about 170 kDa; also called allele 1 of 961) ATSDDDVKKAATVAIVAAYNNGQEINGFKAGETIYDIGEDGTITQKDATAADVEADDFKGLGLKKVVTNLTKTVNENKQNVDAKVKAAESEIEKLTTKLADTDAALADTDAALDETTNALNKLGENITTFAEETKTNIVKIDEKLEAVADTVDKHAEAFNDIADSLDETNTKADEAVKTANEAKQTAEETKQNVDAKVKAAETAAGKAEAAAGTANTAADKAEAVAAKVTDIKADIATNKADIAKNSARIDSLDKNVANLRKETRQGLAEQAALSGLFQPYNVGRFNVTAAVGGYKSESAVAIGTGFRFTENFAAKAGVAVGTSSGSSAAYHVGVNYEW",binding result,[4],binds
